Blank lines part the entries; values can stand above or below the binder they belong to.
Tests used:
[1] = target: ROR1 with Ig-like domain removed (human); experiment: FACS
[2] = target: T1, human ROR1 on tumor cell surface (human, UniProt Q01973); experiment: FACS, NCI-H226
[3] = target: ROR1 with Ig-like domain removed (human); experiment: FACS; remark: listed apart in the source
[4] = target: ROR1 extracellular segment (with transmembrane) on CHO (human); experiment: FACS
[5] = target: T1, human ROR1 on tumor cell surface; experiment: FACS, MDA-MB-231
[6] = target: T2, ROR1 with Frizzled domain removed (human); experiment: FACS
T2 chain: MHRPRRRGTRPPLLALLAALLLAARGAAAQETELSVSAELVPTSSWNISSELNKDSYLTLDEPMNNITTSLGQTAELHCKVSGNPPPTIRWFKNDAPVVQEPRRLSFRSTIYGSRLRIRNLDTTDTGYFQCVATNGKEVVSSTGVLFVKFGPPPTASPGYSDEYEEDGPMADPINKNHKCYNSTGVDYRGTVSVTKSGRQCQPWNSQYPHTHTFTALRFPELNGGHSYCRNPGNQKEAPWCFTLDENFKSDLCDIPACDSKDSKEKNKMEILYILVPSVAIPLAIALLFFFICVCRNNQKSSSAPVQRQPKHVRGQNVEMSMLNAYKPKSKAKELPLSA

[7] = target: ROR1 with Kringle domain removed (human); experiment: FACS
human ROR1-ECD = human ROR1-ECD (human); experiment: ELISA
Chain of human ROR1-ECD (human) (chain, as listed by the source): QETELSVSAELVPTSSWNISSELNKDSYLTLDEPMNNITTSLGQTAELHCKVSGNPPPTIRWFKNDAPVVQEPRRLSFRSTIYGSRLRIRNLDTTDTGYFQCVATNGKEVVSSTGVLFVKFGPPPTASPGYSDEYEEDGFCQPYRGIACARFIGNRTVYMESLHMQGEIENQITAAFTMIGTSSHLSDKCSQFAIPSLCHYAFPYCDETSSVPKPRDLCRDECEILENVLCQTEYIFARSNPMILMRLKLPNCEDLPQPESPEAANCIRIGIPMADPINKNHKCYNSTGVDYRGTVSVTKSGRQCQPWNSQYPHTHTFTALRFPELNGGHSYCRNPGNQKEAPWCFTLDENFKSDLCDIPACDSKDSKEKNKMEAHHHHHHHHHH

human ROR2-ECD = human ROR2-ECD (human, UniProt Q01974); experiment: ELISA
Chain of human ROR2-ECD (Q01974 34-403): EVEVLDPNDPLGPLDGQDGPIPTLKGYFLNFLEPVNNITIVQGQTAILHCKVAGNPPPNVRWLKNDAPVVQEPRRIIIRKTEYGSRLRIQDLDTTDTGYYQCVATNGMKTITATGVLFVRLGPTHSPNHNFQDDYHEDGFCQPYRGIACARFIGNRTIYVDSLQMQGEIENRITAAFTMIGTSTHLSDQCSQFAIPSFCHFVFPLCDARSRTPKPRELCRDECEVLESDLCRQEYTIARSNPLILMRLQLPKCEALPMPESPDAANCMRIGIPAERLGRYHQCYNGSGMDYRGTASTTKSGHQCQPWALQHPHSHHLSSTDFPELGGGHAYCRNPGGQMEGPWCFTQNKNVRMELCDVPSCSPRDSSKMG

T1 sequence (Q01973 30-406): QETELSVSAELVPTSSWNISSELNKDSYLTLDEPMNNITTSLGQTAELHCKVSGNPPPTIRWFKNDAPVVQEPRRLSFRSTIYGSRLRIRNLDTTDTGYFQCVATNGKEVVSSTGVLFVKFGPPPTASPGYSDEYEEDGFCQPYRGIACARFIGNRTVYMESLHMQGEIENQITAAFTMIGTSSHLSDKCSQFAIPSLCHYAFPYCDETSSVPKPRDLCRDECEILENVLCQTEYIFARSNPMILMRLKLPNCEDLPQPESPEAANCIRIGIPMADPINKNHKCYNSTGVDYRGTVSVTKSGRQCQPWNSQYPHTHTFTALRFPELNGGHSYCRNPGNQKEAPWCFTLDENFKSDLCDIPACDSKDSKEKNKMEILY

B1: UC-961 (antibody, V domains shown)
VH: QVQLQESGPGLVKPSQTLSLTCTVSGYAFTAYNIHWVRQAPGQGLEWMGSFDPYDGGSSYNQKFKDRLTISKDTSKNQVVLTMTNMDPVDTATYYCARGWYYFDYWGHGTLVTVSS
VL: DIVMTQTPLSLPVTPGEPASISCRASKSISKYLAWYQQKPGQAPRLLIYSGSTLQSGIPPRFSGSGYGTDFTLTINNIESEDAAYYFCQQHDESPYTFGEGTKVEIK
binding result [1]: no binding

B3: mAb002 (mouse) (antibody)
chain 1: EVQLQQSGPELVKPGASVKMSCKTSGYTFTDYNLHWVKQSHRRSLEWIGYINPNNGGTTYNQKFKGKATLTVDKSSSTAYMELRSLTSEDSAVYYFVRRVRTGTGFDYWGQGTTLTVSS
chain 2: EVLMTQTPLSLPVSLGDQASISCKSSHNILHTNGNTYLEWYLQKPGQSPKLLIYKVSNRFSGVPDRFSGSGSGTDFTLTISRVEAEDLGVYYCFQGSRFPYTFGGGTKLEIK
EC50 [5]: 0.11 nM | EC50 (human ROR1-ECD): 0.028 nM

B4: mAb005c (antibody, V domains shown)
VH: EVQLVESGGGLVKPGGSLKLSCAASGFTFNSYAMSWVRQTPEKRLEWVATISDGGSYTYYPDNEKGRFTISRDNAKNNLYLQMSHLKSEDTAIYYCVRGGYYYNLYAMDYWGQGTSVTVSS
VL: DIVLTQSPASLAVSLGQRAIISCKASQSVSFPGTSLMHWYQQKPGQQPKLLIYRASNLEAGVPTRFSGSGSRTDFTLNIHPVEEDDTATYYCQQSREYPWTFGGGTQLEIK
binding result [1]: no binding

B6: mAb003c (antibody, V domains shown)
VH: EVQLVESGGGLVKPGGSLKLSCAASGFTFSSYAMSWVRQTPEKRLEWVATISDGGSYTYYPDSVKGRFTISRDNAKNNLYLQMSHLKSEDTDMYYCVRGGYYYNLYAMDYWGQGTSVTVSS
VL: DIVLTQSPASLAVSLGQRAIISCKASQSVSFAGTSLMHWYQQKPGQQPKLLIYRASNLEAGVPTRFSGSGSRADFTLNIHPVEEDDAATYYCQQSGEYPWTFGGGTKLEIK
binding result [1]: no binding

B7: Hu001-02 (antibody, V domains shown)
VH: QVQLVQSGAEVKKPGASVKVSCKASGYTFTDYNLHWVRQAPGQGLEWMGYINPNHDATSYNQKFQGRVTMTRDTSTSTVYMELSSLRSEDTAVYYCARRVRTGTGLDDWGQGTTVTVSS
VL: DVVMTQSPLSLPVTLGQPASISCRSSHNIVHTNANTYLEWYQQRPGQSPRLLIYKVSNRFSGVPDRFSGSGSGTDFTLKISRVEAEDVGVYYCFQGSRFPYTFGGGTKVEIK
binding result (human ROR2-ECD): no binding

The next lines start with the values.

EC50 [2]: 0.14 nM | EC50 [3]: 0.35 nM | EC50 [4]: 0.6 nM | EC50 [5]: 0.2 nM | EC50 [6]: 0.86 nM | EC50 [7]: 0.66 nM | EC50 (human ROR1-ECD): 0.013 nM
B2: mAb002c (antibody)
chain 1: EVQLQQSGPELVKPGASVKMSCKTSGYTFTDYNLHWVKQSHRRSLEWIGYINPNNGGTTYNQKFKGKATLTVDKSSSTAYMELRSLTSEDSAVYYFVRRVRTGTGFDYWGQGTTLTVSS
chain 2: EVLMTQTPLSLPVSLGDQASISCKSSHNILHTNGNTYLEWYLQKPGQSPKLLIYKVSNRFSGVPDRFSGSGSGTDFTLTISRVEAEDLGVYYCFQGSRFPYTFGGGTKLEIK

binding result (human ROR2-ECD): no binding
B5: Hu005-46 (antibody, V domains shown)
VH: EVQLVESGGGLVKPGGSLRLSCAASGFTFNSYAMSWVRQTPGKRLEWVATISDAGSYTYYPDNEKGRFTISRDNAKNSLYLQMNSLRAEDTAIYYCVRGGYYYNLYAMDYWGQGTLVTVSS
VL: DIVLTQSPDSLAVSLGERATINCKASQSVSFPGTSLMHWYQQKPGQQPKLLIYRASNLEAGVPDRFSGSGSRTDFTLTISSLQAEDVAVYYCQQSREYPWTFGGGTKVEIK
